The text below walks through data of paper PMC7536116.

Like-named read-outs stand apart in the source and are kept apart here.

What all share (assay): GFET
Data set [1] deals with T1, TNF-alpha (human, UniProt P01375 77-233).
Data set [2] deals with T1, TNF-alpha. The source holds these as a separate data set.
Data set [3] has as its target T1, TNF-alpha. The source holds these as a separate data set.

A word on the Kd: it is a measure of binding affinity in units of concentration. A high value points to lower affinity.

T1 sequence (P01375 77-233): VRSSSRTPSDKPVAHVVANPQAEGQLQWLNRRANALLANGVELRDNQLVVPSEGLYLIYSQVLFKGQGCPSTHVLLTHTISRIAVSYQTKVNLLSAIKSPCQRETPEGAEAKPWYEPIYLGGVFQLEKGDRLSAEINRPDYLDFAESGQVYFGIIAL

On to TGGTGGATGGCGCAGTCGGCGACAA (ssDNA, 5'-NH2 (amine, coupled to PASE on graphene)) [VR11 aptamer], for which the dissociation constant Kd in the data set with TNF-alpha [1] worked out at 28.4 nM; with TNF-alpha [2], 28.4 nM; with TNF-alpha [3], 27.4 nM.
